The data set deals with the molecule itself. As to the kind of experiment: cryo-EM structure; purified f1pIV (~0.7 mg/ml) in 1% CHAPS, 25 mM Na HEPES pH 8.0, 500 mM NaCl, 0.5 mM EDTA, on graphene oxide-coated lacey carbon grids; 2D class averages and a 3D reconstruction with C15 symmetry, 2.7 Å.

From article PMC8563730, “CryoEM structure of the outer membrane secretin channel pIV from the f1 filamentous bacteriophage” (Nature Communications, 2021) come the findings set out here.

As a reminder, the stoichiometry N is a count of units in the complex or per binding partner.

B1: f1 pIV secretin (His-tagged f1pIV with the stabilizing S318I mutation) (natural protein, bacteriophage f1, UniProt P03666 22-426, looked up)
chain: QVIEMNNSSLRDFVTWYSKQTGESVIVSPDVKGTVTVYSSDVKPENLRDFFISVLRANNFDMVGSIPSIIQKYNPNNQDYIDELPSSDNQEYDDNSAPSGGFFVPQNDNVTQTFKINNVRAKDLIRVVELFVKSNTSKSSNVLSVDGSNLLVVSAPKDILDNLPQFLSTVDLPTDQILIEGLIFEVQQGDALDFSFAAGSQRGTVAGGVNTDRLTSVLSSAGGSFGIFNGDVLGLSVRALKTNSHSKILSVPRILTLSGQKGSISVGQNVPFITGRVTGESANVNNPFQTVERQNVGISMSVFPVAMAGGNIVLDITIKADSLSSSTQASDVITNQRSIATTVNLRDGQTLLLGGLTDYKNTSQDSGVPFLSKIPLIGLLFSSRSDSNEESTLYVLVKATIVRAL
notes: pIV secretin (gene IV protein, virion export protein) of filamentous bacteriophage f1; mature protein of 405 residues (N0 1-88, linker 89-107, N3 108-172, linker 173-174, secretin domain 175-405); S318 is residue 339 of the precursor (318 + 21 signal residues); also called f1pIV secretin channel; copies: 15
As to B1, the “stoichiometry N” value is 15.
